Values of other authors, collected in publication PMC6375914.
pKd: −log10 of the molar value.

Key:
[1] = biological target: Ubc9 (Homo sapiens) (UniProt P63279); assay: SPR
[2] = biological target: Ubc9 (Homo sapiens) (UniProt P63279); assay: ITC

Chain of UniProt P63279 (P63279 2-158): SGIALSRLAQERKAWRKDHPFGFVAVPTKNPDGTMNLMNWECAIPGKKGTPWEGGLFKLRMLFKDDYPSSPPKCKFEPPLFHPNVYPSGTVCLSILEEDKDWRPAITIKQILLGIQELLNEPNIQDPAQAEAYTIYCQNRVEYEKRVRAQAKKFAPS

- pKd [1]: 6.46
- pKd [2]: 6.60
Substance: SUMO1 (from UniProt P63165)
